From patent US20210371530A1 (Merck Sharp & Dohme, published 2021)

Target: human PD-1 on cells (human, UniProt Q15116 25-288)
Test: cell-based or functional assay

Sequence of human PD-1 on cells (Q15116 25-288): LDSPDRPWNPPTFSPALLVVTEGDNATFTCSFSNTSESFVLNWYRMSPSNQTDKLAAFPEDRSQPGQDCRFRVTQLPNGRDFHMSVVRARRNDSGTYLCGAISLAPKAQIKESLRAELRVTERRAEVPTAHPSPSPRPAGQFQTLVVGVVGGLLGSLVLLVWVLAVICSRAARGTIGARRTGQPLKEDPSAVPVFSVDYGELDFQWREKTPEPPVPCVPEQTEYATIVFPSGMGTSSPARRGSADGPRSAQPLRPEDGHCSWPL

B1: Anti-PD-1/LAG3 bispecific antibody 33ARK (bispecific antibody, human IgG1, kappa, L234A L235A)
heavy 1: EVQLVQSGAEVKKPGASVKVSCKASGYTFTSYYLYWVREAPGQGLEWIGGVNPSNGGTNFNEKFKSRVTLTVDTSISTAYMELSRLRSDDTAVYYCTRRDSNYDGGFDYWGQGTTVTVSSASTKGPSVFPLAPSSKSTSGGTAALGCEVTDYFPEPVTVSWNSGALTSGVHTFPAVLESSGLYSLSSVVTVPSSSLGTQTYICNVNHKPSNTKVDKKVEPKSCDKTHTCPPCPAPEAAGGPSVFLFPPKPKDTLMISRTPEVTCVVVSVSHEDPEVKFNWYVDGVEVHNAKTKPREEQYNSTYRVVSVLTVLHQDWLNGKEYKCKVSNKALPAPIEKTISKAKGQPREPQVYVLPPSRDELTKNQVSLLCLVKGFYPSDIAVEWESNGQPENNYLTWPPVLDSDGSFFLYSKLTVDKSRWQQGNVFSCSVMHEALHNHYTQKSLSLSPG
light 1: DIVMTQTPLSLSVTPGQPASISCRASKSVSTSGFSYLHWYLRKPGQPPQLLIFLASNLESGVPDRFSGSGSGTDFTLKISRVEAEDVGVYYCQHSWELPLTFGQGTKLEIKRTVAAPSVFIFPPSDERLKSGTASVVCLLNNFYPREAKVQWKVDNALQSGNSKESVTEQDSKDSTYSLSSRLTLSKADYEKHKVYACEVTHQGLSSPVTKSFNRGEC
heavy 2: not shown
light 2: DIVMTQTPLSLSVTPGQPASISCKASQSLDYEGDSDMNWYLEKPGQPPQLLIYGASNLESGVPDRFSGSGSGTDFTLKISRVEAEDVGVYYCQQSTEDPRTFGGGTKVEIKRTVAAPSVFIFPPSDEELKSGTASVVCLLNNFYPREAKVQWKVDNALQSGNSEESVTEQDSKDSTYSLSSTLELSKADYEKHKVYACEVTHQGLSSPVTKSFNRGEC
AVG EC50 (nM), IL-2 luciferase reporter, Jurkat.hPD-1.IL2luc + THP-1.PD-L1 assay: 3.12 nM
